T1: human FAPα-His tag (Sino biological) (human, UniProt Q12884 26-760)
T1 construct: Bought protein; also called human FAPα-His protein; not shown: His tag
T1 sequence (looked up): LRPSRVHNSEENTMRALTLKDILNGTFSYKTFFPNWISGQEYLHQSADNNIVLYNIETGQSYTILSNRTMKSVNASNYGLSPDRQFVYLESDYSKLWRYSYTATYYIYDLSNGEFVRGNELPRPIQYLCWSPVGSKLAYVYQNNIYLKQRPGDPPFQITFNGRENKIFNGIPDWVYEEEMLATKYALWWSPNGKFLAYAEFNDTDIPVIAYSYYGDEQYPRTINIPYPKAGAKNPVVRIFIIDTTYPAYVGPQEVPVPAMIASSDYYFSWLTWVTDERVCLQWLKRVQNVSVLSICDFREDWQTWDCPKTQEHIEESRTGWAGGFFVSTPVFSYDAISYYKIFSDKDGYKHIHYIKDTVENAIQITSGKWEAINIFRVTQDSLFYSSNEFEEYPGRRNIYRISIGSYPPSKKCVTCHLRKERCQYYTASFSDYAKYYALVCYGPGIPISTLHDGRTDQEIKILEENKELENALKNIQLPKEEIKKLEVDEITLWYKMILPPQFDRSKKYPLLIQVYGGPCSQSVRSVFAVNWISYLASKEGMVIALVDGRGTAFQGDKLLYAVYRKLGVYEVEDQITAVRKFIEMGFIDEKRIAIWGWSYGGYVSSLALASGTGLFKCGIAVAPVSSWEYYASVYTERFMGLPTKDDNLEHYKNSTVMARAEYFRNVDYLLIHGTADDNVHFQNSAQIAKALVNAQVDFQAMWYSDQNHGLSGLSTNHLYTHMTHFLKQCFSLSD

T2: human FAPα on CHO-K1-hFAPα cells (human, UniProt Q12884 1-760)
T2 construct: whole, on cells; also called cell-surface FAPα
T2 sequence (looked up): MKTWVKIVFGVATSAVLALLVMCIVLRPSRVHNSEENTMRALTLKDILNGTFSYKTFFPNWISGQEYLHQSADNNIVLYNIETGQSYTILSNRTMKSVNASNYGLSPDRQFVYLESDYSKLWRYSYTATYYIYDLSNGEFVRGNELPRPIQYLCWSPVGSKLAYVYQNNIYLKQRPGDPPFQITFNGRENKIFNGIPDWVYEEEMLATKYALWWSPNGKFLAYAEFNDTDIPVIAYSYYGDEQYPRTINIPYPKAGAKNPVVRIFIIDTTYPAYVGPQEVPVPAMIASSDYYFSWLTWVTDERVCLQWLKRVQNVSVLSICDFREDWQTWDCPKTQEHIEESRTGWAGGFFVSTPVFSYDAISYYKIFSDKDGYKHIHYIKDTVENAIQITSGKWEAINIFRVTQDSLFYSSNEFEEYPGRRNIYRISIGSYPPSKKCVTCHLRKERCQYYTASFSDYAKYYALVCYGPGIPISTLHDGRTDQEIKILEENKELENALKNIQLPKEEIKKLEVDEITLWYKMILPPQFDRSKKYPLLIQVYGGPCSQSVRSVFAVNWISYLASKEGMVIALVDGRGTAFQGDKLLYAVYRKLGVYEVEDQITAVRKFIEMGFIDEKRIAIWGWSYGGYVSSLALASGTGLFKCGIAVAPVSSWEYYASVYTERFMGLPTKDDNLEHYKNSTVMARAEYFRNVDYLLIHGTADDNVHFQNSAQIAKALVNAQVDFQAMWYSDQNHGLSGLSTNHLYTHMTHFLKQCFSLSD

T3: mouse FAPα-His protein (mouse, UniProt P97321 26-761, limits assumed)
T3 construct: not shown: His tag
T3 sequence (looked up): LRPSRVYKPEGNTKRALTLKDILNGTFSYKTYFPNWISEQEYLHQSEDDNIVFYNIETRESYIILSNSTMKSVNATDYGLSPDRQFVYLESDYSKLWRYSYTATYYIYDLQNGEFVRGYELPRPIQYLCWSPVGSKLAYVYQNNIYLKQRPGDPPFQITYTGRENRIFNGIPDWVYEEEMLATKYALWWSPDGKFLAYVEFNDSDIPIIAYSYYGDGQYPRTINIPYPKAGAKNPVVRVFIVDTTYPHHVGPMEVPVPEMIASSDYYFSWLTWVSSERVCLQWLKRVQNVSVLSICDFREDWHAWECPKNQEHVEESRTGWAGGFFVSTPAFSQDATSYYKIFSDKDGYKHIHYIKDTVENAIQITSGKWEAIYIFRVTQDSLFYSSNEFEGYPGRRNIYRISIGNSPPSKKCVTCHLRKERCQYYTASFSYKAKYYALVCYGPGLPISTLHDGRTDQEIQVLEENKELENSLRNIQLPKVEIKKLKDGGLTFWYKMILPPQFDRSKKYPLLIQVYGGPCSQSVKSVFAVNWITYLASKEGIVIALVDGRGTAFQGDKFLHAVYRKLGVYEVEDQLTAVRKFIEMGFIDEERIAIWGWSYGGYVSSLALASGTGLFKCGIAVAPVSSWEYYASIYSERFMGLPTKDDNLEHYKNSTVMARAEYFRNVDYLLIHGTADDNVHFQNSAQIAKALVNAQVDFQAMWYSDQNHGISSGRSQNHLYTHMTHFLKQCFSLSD

B1: J59 (antibody, V domains shown)
VH: QVQLLESGGGVVQPGRSLRLSCAASGFTFSSYGMHWVRQAPGKGLEWVAVISYDGSNKYYADSVKGRFTISRDNSKNTLYLQMNSLRADDTAVYYCARESYTGLGSFLHWGQGTLVTVSA
VL: NIQLTQSPSSLSASVGDRVTITCRASQTISNYLNWYQQKPGKAPKLLISAASSLQGGVPSRFSGSGSGTDFTLAISSLQPEDSATYYCQYWGTFGQGTKLEIK
notes: Tested as a mAb
B2: G52 (antibody, V domains shown)
VH: EVQLLESGGDLVQPGGSLRLSCAASGFTFSSYAMSWVRQAPGKGLEWVSGISNGGDSIAYADSVKGRFTVFRDNAKNTLYLQMNSLRAEDTAIYYCARGNYYAHDDWGQGTLVTVSA
VL: DIQLTQSPSSVSASVGDRVTITCRASQGVGSWLAWYQQKPGKPPKLLIYAASSLQSGVPSRFSGSGSGTDFTLTISSLQPEDFATYYCQQANSFPLTFGGGTKVEIK
notes: Tested as a mAb; also called FAP-G52; FAP-G52-Bio (biotin-conjugated form)
B3: I38 (antibody, V domains shown)
VH: EVQLVQSGAEVKEPGVSVKVSCKASGYTFASYGLSWVRLAPGQGLQWMGWISPYTPNPIYAPNFRDKVILTTDRSTNTAYLEVRSLRSDDTGLYYCARNHWVGRPTRAFDLWGQGTMVTVSA
VL: EIVLTQSPGTLSLSPGERATLSCRASQTVSITHLAWYQQKPGQAPRLLTYGASARATGIPDRFSVSGSGTDFTLTITRLEPEDFAVYYCQHYGSSITFGGGTKVEIK
notes: Tested as a mAb; also called FAP-I38

What was measured:
[1] = biological target: T1, human FAPα-His tag (Sino biological); assay: SPR (Biacore T200), mAb captured on Protein A chip, human FAPα-His as analyte
Description: The binding of the tested antibodies to recombinant FAPα protein (human FAPα-his tag) was tested with Biacore using a capture method. The mAbs were captured using Protein A chip. A serial dilution of human FAPα-his tag protein was injected over captured antibody for 3 mins at a flow rate of 30 μl/min. The antigen was allowed to dissociate for 800s. All the experiments were carried out on a Biacore T200. Data analysis was carried out using the Biacore T200 evaluation software.

[2] = biological target: T2, human FAPα on CHO-K1-hFAPα cells; assay: flow cytometry on CHO-K1-hFAPα cells (MFI of PE); parameters: unit not given beside the values
Description: (§1) To evaluate the cell-based binding property to human FAPα, the tested antibodies were analyzed for their binding to CHO-K1-hFAPα by FACS. A total number of 1×10⁵ CHO-K1-hFAPα cells in each well were incubated with 4-fold serial diluted antibodies starting from 3 μg/ml for 30 minutes at 4° C. in FACS buffer. After wash by FACS buffer, PE conjugated-anti-human IgG antibody was added to each well and incubated at 4° C. for 30 minutes. After wash, MFI of PE was evaluated by MACSQuant Analyzer 16.

[3] = biological target: T2, human FAPα on CHO-K1-hFAPα cells; assay: flow cytometry on CHO-K1-hFAPα cells
Description: as §1

[4] = biological target: T1, human FAPα-His tag (Sino biological); assay: ELISA, coated human FAPα-His
Description: Briefly, microtiter plates were coated with human FAPα-His protein at 0.5 ug/ml in PBS, 100 μl/well at 4° C. overnight, then blocked with 150 μl/well of 1% BSA. Three-fold dilutions of tested antibodies starting from 1 μg/ml were added to each well and incubated for 1 hour at 37° C. The plates were washed with PBS/Tween and then incubated with Anti-Human IgG (H&L) (GOAT) Antibody Peroxidase Conjugated for 30 mins at 37° C. After washing, the plates were developed with TMB substrate and analyzed by spectrophotometer at OD 450 nm. […] FAP-4B9 clone from Roche was served as positive control which labeled as FAPα-BMK.

mouse FAPα-His protein = biological target: T3, mouse FAPα-His protein; assay: ELISA, plate coated with mouse FAPα-His, anti-human IgG-HRP, OD 450 nm
Description: Briefly, microtiter plates were coated with mouse FAPα-His protein at 0.5 ug/ml in PBS, 100 μl/well at 4° C. overnight, then blocked with 150 μl/well of 1% BSA. Three-fold dilutions of tested antibodies starting from 1 μg/ml were added to each well and incubated for 1 hour at 37° C. The plates were washed with PBS/Tween and then incubated with Anti-Human IgG (H&L) (GOAT) Antibody Peroxidase Conjugated for 30 mins at 37° C. After washing, the plates were developed with TMB substrate and analyzed by spectrophotometer at OD 450 nm.

[5] = biological target: T1, human FAPα-His tag (Sino biological); assay: competitive ELISA on coated human FAPα; competitor (detected): FAPα (BMK)-Bio
Description: (§2) Briefly, microtiter plates were coated with human FAPα proteins at 0.5 μg/ml in PBS, 100 μl/well at 4° C. overnight, then blocked with 150 μl/well of 1% BSA. Serial dilutions of chimeric antibodies as well as biotin-conjugated reference mAb were added to each well and incubated for 1 hour at RT. The plates were washed with PBS/Tween and then incubate with streptavidin-HRP for 15 mins at RT. After washing, the plates were developed with TMB substrate and analyzed by spectrophotometer at OD 450 nm. According to the competition ability to reference mAbs (Benchmark, or “BMK”), all tested FAPα mAbs binds to the similar epitope as shown in Table 5.

[6] = biological target: T1, human FAPα-His tag (Sino biological); assay: competitive ELISA on coated human FAPα; competitor (detected): FAP-I38-Bio
Description: as §2

[7] = biological target: T1, human FAPα-His tag (Sino biological); assay: competitive ELISA on coated human FAPα; competitor (detected): FAP-I30-Bio
Description: as §2

[8] = biological target: T1, human FAPα-His tag (Sino biological); assay: competitive ELISA on coated human FAPα; competitor (detected): FAP-I37-Bio
Description: (§3) Competitive ELISA was carried out to classify the FAPα mAbs based on the binding epitope to human FAPα.
as §2

[9] = biological target: T1, human FAPα-His tag (Sino biological); assay: competitive ELISA on coated human FAPα; biotinylated mAb alone, no competing Ab (row '0')
Description: as §2

[10] = biological target: T1, human FAPα-His tag (Sino biological); assay: competitive ELISA on coated human FAPα; competitor (detected): FAP-J40-Bio
Description: as §2

[11] = biological target: T1, human FAPα-His tag (Sino biological); assay: competitive ELISA on coated human FAPα; competitor (detected): FAP-G52-Bio
Description: as §2

[12] = biological target: T1, human FAPα-His tag (Sino biological); assay: competitive ELISA on coated human FAPα; competitor (detected): FAP-G14-Bio
Description: as §3, §2

| Binder | Kd [1] [nM] | koff [1] [s⁻¹] | kon [1] [M⁻¹ s⁻¹] | Cmax [2] | EC50 [3] [ng/mL] | EC50 [4] [ng/mL] | binding result (mouse FAPα-His protein) | OD 450 nm [5] [OD 450 nm] | OD 450 nm [6] [OD 450 nm] | OD 450 nm [7] [OD 450 nm] | OD 450 nm [8] [OD 450 nm] | OD 450 nm [9] [OD 450 nm] | OD 450 nm [10] [OD 450 nm] | OD 450 nm [11] [OD 450 nm] | OD 450 nm [12] [OD 450 nm] |
| --- | --- | --- | --- | --- | --- | --- | --- | --- | --- | --- | --- | --- | --- | --- | --- |
| B1 | 1.78 | 0.000594 | 333000 | 149 | 0.029 | 3.94 | no binding (tested: 1000 ng/ml) |  |  |  |  |  |  |  |  |
| B2 | 0.446 | 1.81e-05 | 40500 |  |  | 9.48 | no binding (tested: 1000 ng/ml) | 0.304 | 0.466 | 0.302 | 0.399 | 1.26 | 0.298 | 0.283 | 0.358 |
| B3 | 1.12 | 0.000116 | 103000 | 189 | 0.026 | 4.89 |  | 0.154 | 0.396 | 0.22 | 0.282 | 1.21 | 0.226 | 0.176 | 0.149 |
